Assay results: patent publication US20210395381A1 (OSSIANIX, published 2021)
Positions count from the first letter of the chain named.

B1: Clone 8.46 (VNAR)
VNAR: ARVDQTPQTITKETGESLTINCVLRDSNCALPSTYWYRKKSGSTNEESISKGGRYVETVNSGSKSFSLRINDLTVEDSGTYRCKVIAQLSSYVVGCNYRKHDVYGDGTAVTVNA
notes: VNAR on phage; Clone 8 framework
B2: Clone 8.70 (VNAR)
VNAR: B1 VNAR with Y92I, V93L, V94R, R99Q, K100T, H101S
notes: as for B1
B3: Clone 8.55 (VNAR)
VNAR: B1 VNAR with Y92I, V93L, V94F, G95W, N97A
notes: as for B1
B4: Clone 8.48 (VNAR)
VNAR: B1 VNAR with Y92I, V93L, V94R, R99M, K100M, H101Y
notes: as for B1
B5: Clone 8.84 (VNAR)
VNAR: B1 VNAR with Q88W, L89Q, Y92I, V93L, V94R
notes: as for B1
B6: Clone 8.80 (VNAR)
VNAR: B1 VNAR with S90P, S91H, Y92D, V93L, V94R
notes: as for B1
B7: Clone 8.67 (VNAR)
VNAR: B1 VNAR with Y92I, V93L, V94R, N97V, Y98E, R99P
notes: as for B1
B8: Clone 8.99 (VNAR)
VNAR: B1 VNAR with I86L, A87F, Q88D, Y92I, V93L, V94R
notes: as for B1
B9: Clone 8.78 (VNAR)
VNAR: B1 VNAR with Y92V, V94I, R99S
notes: as for B1
B10: Clone 8.86 (VNAR)
VNAR: B1 VNAR with Y92I, V93L, G95N, N97F
notes: as for B1
B11: Clone 8.85 (VNAR)
VNAR: B1 VNAR with S90R, S91K, Y92K, V93L, V94R
notes: as for B1
B12: Clone 8.57 (VNAR)
VNAR: B1 VNAR with S90G, S91N, Y92L, V93L, V94R
notes: as for B1
B13: Clone 8.95 (VNAR)
VNAR: B1 VNAR with Y92I, V93L, V94L, G95K, N97E
notes: as for B1
B14: Clone 8.50 (VNAR)
VNAR: B1 VNAR with Q88N, Y92I, V93L, V94R
notes: as for B1
B15: Clone 8.83 (VNAR)
VNAR: B1 VNAR with Y92I, V93R, V94A
notes: as for B1
B16: Clone 8.92 (VNAR)
VNAR: B1 VNAR with S90T, S91Q, Y92W, V93L, V94R
notes: as for B1
B17: Clone 8.63 (VNAR)
VNAR: B1 VNAR with I86Y, A87R, Q88Y, Y92I, V93L, V94R
notes: as for B1
B18: Clone 8.90 (VNAR)
VNAR: B1 VNAR with Y92I, V93L, V94R, R99L, K100Y, H101I
notes: as for B1
B19: Clone 8.93 (VNAR)
VNAR: B1 VNAR with L89Q, Y92I, V93L, V94R
notes: as for B1
B20: Clone 8.69 (VNAR)
VNAR: B1 VNAR with Y92A, V93P, V94A
notes: as for B1
B21: Clone 8.71 (VNAR)
VNAR: B1 VNAR with Y92I, V93L, V94R, N97T, Y98P, R99H
notes: as for B1
B22: Clone 8.61 (VNAR)
VNAR: B1 VNAR with Y92I, V93L, V94Q, G95R
notes: as for B1
B23: Clone 8.79 (VNAR)
VNAR: B1 VNAR with I86M, A87N, S90D, S91H, Y92F, V93L, V94R
notes: as for B1
B24: Clone 8.68 (VNAR)
VNAR: B1 VNAR with Y92I, V93L, V94S, G95S, N97H
notes: as for B1
B25: Clone 8.94 (VNAR)
VNAR: B1 VNAR with Q88D, L89V, S90G, Y92I, V93L, V94R
notes: as for B1
B26: Clone 8.54 (VNAR)
VNAR: B1 VNAR with Q88S, L89A, S90V, Y92I, V93L, V94R
notes: as for B1

Legend:
recombinant mouse TfR-1 = biological target: T1, recombinant mouse TfR-1 (mouse, UniProt Q62351 89-763); experiment: phage ELISA
T1 construct: Recombinant protein coated at 1 ug/ml in the phage ELISA; also called mTfR1; mouse transferrin receptor-1

recombinant human TfR-1 = biological target: T2, recombinant human TfR-1 (human, UniProt P02786 89-760); experiment: phage ELISA
T2 construct: Recombinant protein coated at 1 ug/ml in the phage ELISA; also called hTfR1; human transferrin receptor-1
T2 sequence (P02786 89-760 limits assumed): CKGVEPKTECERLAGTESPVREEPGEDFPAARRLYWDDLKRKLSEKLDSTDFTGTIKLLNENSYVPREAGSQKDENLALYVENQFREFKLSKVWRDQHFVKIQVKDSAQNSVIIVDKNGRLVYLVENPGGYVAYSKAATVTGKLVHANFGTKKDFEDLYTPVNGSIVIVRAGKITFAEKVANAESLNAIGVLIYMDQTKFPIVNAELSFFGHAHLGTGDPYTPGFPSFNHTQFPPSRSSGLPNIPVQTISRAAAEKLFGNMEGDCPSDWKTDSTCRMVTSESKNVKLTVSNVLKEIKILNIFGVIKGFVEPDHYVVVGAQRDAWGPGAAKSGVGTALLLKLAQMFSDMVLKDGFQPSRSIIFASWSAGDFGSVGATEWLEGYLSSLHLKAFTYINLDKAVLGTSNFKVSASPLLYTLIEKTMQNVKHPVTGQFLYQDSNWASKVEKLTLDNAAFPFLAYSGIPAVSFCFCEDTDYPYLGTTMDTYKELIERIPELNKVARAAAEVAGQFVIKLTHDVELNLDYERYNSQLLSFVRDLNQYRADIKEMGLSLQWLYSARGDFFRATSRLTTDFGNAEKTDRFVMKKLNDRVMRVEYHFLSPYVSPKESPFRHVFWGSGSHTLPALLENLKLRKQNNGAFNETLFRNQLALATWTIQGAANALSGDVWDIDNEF

T1 sequence (Q62351 89-763 limits assumed): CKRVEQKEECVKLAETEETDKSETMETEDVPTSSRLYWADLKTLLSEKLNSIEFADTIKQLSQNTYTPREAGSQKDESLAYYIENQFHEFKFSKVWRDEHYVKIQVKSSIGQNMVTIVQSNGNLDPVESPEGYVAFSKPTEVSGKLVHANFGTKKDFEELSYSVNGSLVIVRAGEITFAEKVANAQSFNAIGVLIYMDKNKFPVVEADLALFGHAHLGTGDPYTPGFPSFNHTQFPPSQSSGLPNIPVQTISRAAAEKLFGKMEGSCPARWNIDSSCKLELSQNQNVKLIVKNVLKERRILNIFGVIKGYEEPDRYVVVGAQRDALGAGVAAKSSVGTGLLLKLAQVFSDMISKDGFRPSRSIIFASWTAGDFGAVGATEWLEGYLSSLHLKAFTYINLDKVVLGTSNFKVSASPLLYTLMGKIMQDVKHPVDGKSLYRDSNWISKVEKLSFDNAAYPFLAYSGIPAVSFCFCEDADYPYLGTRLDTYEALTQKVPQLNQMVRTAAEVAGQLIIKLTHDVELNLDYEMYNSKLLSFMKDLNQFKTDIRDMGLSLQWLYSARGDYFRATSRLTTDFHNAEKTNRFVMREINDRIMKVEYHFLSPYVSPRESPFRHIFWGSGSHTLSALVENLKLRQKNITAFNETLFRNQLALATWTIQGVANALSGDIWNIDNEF

Binder	A450 (recombinant mouse TfR-1)	A450 (recombinant human TfR-1)
B1	0.067 A450	0.056 A450
B2	0.061 A450	0.052 A450
B3	0.064 A450	0.055 A450
B4	0.066 A450	0.082 A450
B5	0.057 A450	0.058 A450
B6	0.057 A450	0.059 A450
B7	0.062 A450	0.051 A450
B8	0.053 A450	0.059 A450
B9	0.058 A450	0.049 A450
B10	0.056 A450	0.053 A450
B11	0.056 A450	0.059 A450
B12	0.063 A450	0.083 A450
B13	0.054 A450	0.049 A450
B14	0.065 A450	0.057 A450
B15	0.057 A450	0.046 A450
B16	0.055 A450	0.051 A450
B17	0.063 A450	0.071 A450
B18	0.055 A450	0.054 A450
B19	0.055 A450	0.05 A450
B20	0.061 A450	0.065 A450
B21	0.061 A450	0.073 A450
B22	0.063 A450	0.067 A450
B23	0.058 A450	0.061 A450
B24	0.062 A450	0.056 A450
B25	0.054 A450	0.06 A450
B26	0.065 A450	0.072 A450
